Measurements reported in the Human Domainome abundance scans (Beltran et al. 2025).
± gives the uncertainty stated by the source.

B1: Bromodomain adjacent to zinc finger domain protein 2B, residues 1927 to 1982; numbered along this chain, Q9UIF8 (parent)
chain: KSIMKVYCQICRKGDNEELLLLCDGCDKGCHTYCHRPKITTIPDGDWFCPACIAKA

Variants of: B1
Test: abundance fitness (aPCA) (normalised: wild type 0, dead -1); higher = more abundant; growth selection in yeast, the domain comes from the species named
Settings: Homo sapiens

| Variant | abundance fitness |
| --- | --- |
| KSIMKVYCQICRKGDFEELLLLCDGCDKGCHTYCHRPKITTIPDGDWFCPACIAKA [N16F] | -0.329 ± 0.15 |
| KSIMKVYCQICRKGDSEELLLLCDGCDKGCHTYCHRPKITTIPDGDWFCPACIAKA [N16S] | -0.008 ± 0.085 |
| KSIMKVYCQICRKGDCEELLLLCDGCDKGCHTYCHRPKITTIPDGDWFCPACIAKA [N16C] | -0.081 ± 0.1 |
| KSIMKVYCQICRKGDQEELLLLCDGCDKGCHTYCHRPKITTIPDGDWFCPACIAKA [N16Q] | 0.01 ± 0.16 |
| KSIMKVYCQICRKGDYEELLLLCDGCDKGCHTYCHRPKITTIPDGDWFCPACIAKA [N16Y] | -0.032 ± 0.15 |
| KSIMKVYCQICRKGDVEELLLLCDGCDKGCHTYCHRPKITTIPDGDWFCPACIAKA [N16V] | -0.181 ± 0.11 |
| KSIMKVYCQICRKGDIEELLLLCDGCDKGCHTYCHRPKITTIPDGDWFCPACIAKA [N16I] | -0.098 ± 0.13 |
| KSIMKVYCQICRKGDLEELLLLCDGCDKGCHTYCHRPKITTIPDGDWFCPACIAKA [N16L] | -0.116 ± 0.084 |
| KSIMKVYCQICRKGDAEELLLLCDGCDKGCHTYCHRPKITTIPDGDWFCPACIAKA [N16A] | -0.125 ± 0.096 |
| KSIMKVYCQICRKGDTEELLLLCDGCDKGCHTYCHRPKITTIPDGDWFCPACIAKA [N16T] | -0.017 ± 0.1 |
| KSIMKVYCQICRKGDWEELLLLCDGCDKGCHTYCHRPKITTIPDGDWFCPACIAKA [N16W] | -0.183 ± 0.11 |
| KSIMKVYCQICRKGDDEELLLLCDGCDKGCHTYCHRPKITTIPDGDWFCPACIAKA [N16D] | 0.046 ± 0.21 |
| KSIMKVYCQICRKGDMEELLLLCDGCDKGCHTYCHRPKITTIPDGDWFCPACIAKA [N16M] | -0.165 ± 0.16 |
| KSIMKVYCQICRKGDGEELLLLCDGCDKGCHTYCHRPKITTIPDGDWFCPACIAKA [N16G] | -0.014 ± 0.082 |
| KSIMKVYCQICRKGDNEEFLLLCDGCDKGCHTYCHRPKITTIPDGDWFCPACIAKA [L19F] | -0.294 ± 0.17 |
| KSIMKVYCQICRKGDNEERLLLCDGCDKGCHTYCHRPKITTIPDGDWFCPACIAKA [L19R] | -0.078 ± 0.097 |
| KSIMKVYCQICRKGDNEESLLLCDGCDKGCHTYCHRPKITTIPDGDWFCPACIAKA [L19S] | -0.03 ± 0.094 |
| KSIMKVYCQICRKGDNEEWLLLCDGCDKGCHTYCHRPKITTIPDGDWFCPACIAKA [L19W] | -0.03 ± 0.11 |
| KSIMKVYCQICRKGDNEEGLLLCDGCDKGCHTYCHRPKITTIPDGDWFCPACIAKA [L19G] | -0.064 ± 0.08 |
| KSIMKVYCQICRKGDNEEPLLLCDGCDKGCHTYCHRPKITTIPDGDWFCPACIAKA [L19P] | -0.08 ± 0.13 |
| KSIMKVYCQICRKGDNEEVLLLCDGCDKGCHTYCHRPKITTIPDGDWFCPACIAKA [L19V] | -0.011 ± 0.074 |
| KSIMKVYCQICRKGDNEEKLLLCDGCDKGCHTYCHRPKITTIPDGDWFCPACIAKA [L19K] | -0.016 ± 0.13 |
| KSIMKVYCQICRKGDNEEILLLCDGCDKGCHTYCHRPKITTIPDGDWFCPACIAKA [L19I] | -0.125 ± 0.18 |
| KSIMKVYCQICRKGDNEEMLLLCDGCDKGCHTYCHRPKITTIPDGDWFCPACIAKA [L19M] | 0.061 ± 0.13 |

| Variant | abundance fitness |
| --- | --- |
| KSIMKVYCQICRKGDNEENLLLCDGCDKGCHTYCHRPKITTIPDGDWFCPACIAKA [L19N] | 0.027 ± 0.14 |
| KSIMKVYCQICRKGDNEEQLLLCDGCDKGCHTYCHRPKITTIPDGDWFCPACIAKA [L19Q] | 0.137 ± 0.17 |
| KSIMKVYCQICRKGDNEETLLLCDGCDKGCHTYCHRPKITTIPDGDWFCPACIAKA [L19T] | -0.1 ± 0.11 |
| KSIMKVYCQICRKGDNEEDLLLCDGCDKGCHTYCHRPKITTIPDGDWFCPACIAKA [L19D] | -0.138 ± 0.13 |
| KSIMKVYCQICRKGDNEEYLLLCDGCDKGCHTYCHRPKITTIPDGDWFCPACIAKA [L19Y] | -0.067 ± 0.18 |
| KSIMKVYCQICRKGDNEEELLLCDGCDKGCHTYCHRPKITTIPDGDWFCPACIAKA [L19E] | -0.012 ± 0.093 |
| KSIMKVYCQICRKGDNEECLLLCDGCDKGCHTYCHRPKITTIPDGDWFCPACIAKA [L19C] | -0.071 ± 0.17 |
| KSIMKVYCQICRKGDNECLLLLCDGCDKGCHTYCHRPKITTIPDGDWFCPACIAKA [E18C] | -0.235 ± 0.13 |
| KSIMKVYCQICRKGDNEHLLLLCDGCDKGCHTYCHRPKITTIPDGDWFCPACIAKA [E18H] | 0.042 ± 0.16 |
| KSIMKVYCQICRKGDNEILLLLCDGCDKGCHTYCHRPKITTIPDGDWFCPACIAKA [E18I] | -0.376 ± 0.18 |
| KSIMKVYCQICRKGDNESLLLLCDGCDKGCHTYCHRPKITTIPDGDWFCPACIAKA [E18S] | 0.01 ± 0.1 |
| KSIMKVYCQICRKGDNEQLLLLCDGCDKGCHTYCHRPKITTIPDGDWFCPACIAKA [E18Q] | -0.067 ± 0.1 |
| KSIMKVYCQICRKGDNEGLLLLCDGCDKGCHTYCHRPKITTIPDGDWFCPACIAKA [E18G] | -0.046 ± 0.092 |
| KSIMKVYCQICRKGDNEALLLLCDGCDKGCHTYCHRPKITTIPDGDWFCPACIAKA [E18A] | -0.011 ± 0.096 |
| KSIMKVYCQICRKGDNERLLLLCDGCDKGCHTYCHRPKITTIPDGDWFCPACIAKA [E18R] | -0.055 ± 0.074 |
| KSIMKVYCQICRKGDNEKLLLLCDGCDKGCHTYCHRPKITTIPDGDWFCPACIAKA [E18K] | 0.051 ± 0.16 |
| KSIMKVYCQICRKGDNEPLLLLCDGCDKGCHTYCHRPKITTIPDGDWFCPACIAKA [E18P] | -0.183 ± 0.12 |
| KSIMKVYCQICRKGDNEMLLLLCDGCDKGCHTYCHRPKITTIPDGDWFCPACIAKA [E18M] | -0.039 ± 0.13 |
| KSIMKVYCQICRKGDNEWLLLLCDGCDKGCHTYCHRPKITTIPDGDWFCPACIAKA [E18W] | -0.266 ± 0.12 |
| KSIMKVYCQICRKGDNEYLLLLCDGCDKGCHTYCHRPKITTIPDGDWFCPACIAKA [E18Y] | -0.188 ± 0.18 |
| KSIMKVYCQICRKGDNETLLLLCDGCDKGCHTYCHRPKITTIPDGDWFCPACIAKA [E18T] | -0.011 ± 0.1 |
| KSIMKVYCQICRKGDNEVLLLLCDGCDKGCHTYCHRPKITTIPDGDWFCPACIAKA [E18V] | -0.205 ± 0.086 |
| KSIMKVYCQICRKGDNEFLLLLCDGCDKGCHTYCHRPKITTIPDGDWFCPACIAKA [E18F] | -0.124 ± 0.12 |
